Data from article PMC12692541.

Test system: HalTzlAAA homotrinucleopeptide (synthetic (designed))
Experiment: fluorescence anisotropy
Conditions: none (unmodified); TB (tris/borate) buffer, 25 °C, 20 min incubation; RNA refolded at 90 °C for 5 min; salt and pH not given in the material

Sequence: GCAGACUUUUAAUCUGC [ASLLys3]
- Kd: 75.3 µM
